Measured values reported in paper PMC9638024, “Functional rewiring of G protein-coupled receptor signaling in human labor” (Cell Reports, 2022).

Molecular target: FLAG-tagged EP2, P43116
Assay: PD-PALM (dual-color photoactivated localization microscopy with photoactivatable dyes); HEK 293 cells stably expressing FLAG-EP2 and transfected with HA-OTR; live labelling with anti-FLAG-CAGE 500 and anti-HA-CAGE 552, fixed, TIRF plane, 25 C; search radius 50 nm, Getis Franklin …
Details: other: PD-PALM (dual-color photoactivated localization microscopy with photoactivatable dyes)

Chain of FLAG-tagged EP2, P43116 (P43116 whole entry): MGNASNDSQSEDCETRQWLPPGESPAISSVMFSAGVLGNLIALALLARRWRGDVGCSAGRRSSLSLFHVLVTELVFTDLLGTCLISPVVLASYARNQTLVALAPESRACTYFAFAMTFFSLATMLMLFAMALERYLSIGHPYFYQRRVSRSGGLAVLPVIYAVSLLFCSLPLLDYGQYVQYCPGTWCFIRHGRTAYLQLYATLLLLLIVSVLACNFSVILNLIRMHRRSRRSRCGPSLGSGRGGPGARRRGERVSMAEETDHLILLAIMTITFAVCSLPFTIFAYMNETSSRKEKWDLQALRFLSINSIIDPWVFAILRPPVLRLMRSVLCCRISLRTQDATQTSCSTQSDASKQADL

B1: hemagglutinin (HA)-tagged OTR (protein)
chain: MEGALAANWSAEAANASAAPPGAEGNRTAGPPRRNEALARVEVAVLCLILLLALSGNACVLLALRTTRQKHSRLFFFMKHLSIADLVVAVFQVLPQLLWDITFRFYGPDLLCRLVKYLQVVGMFASTYLLLLMSLDRCLAICQPLRSLRRRTDRLAVLATWLGCLVASAPQVHIFSLREVADGVFDCWAVFIQPWGPKAYITWITLAVYIVPVIVLAACYGLISFKIWQNLRLKTAAAAAAEAPEGAAAGDGGRVALARVSSVKLISKAKIRTVKMTFIIVLAFIVCWTPFFFVQMWSVWDANAPKEASAFIIVMLLASLNSCCNPWIYMLFTGHLFHELVQRFLCCSASYLKGRRLGETSASKKSNSSSFVLSHRSSSQRSCSQPSTA
percent of the heteromers that are heterodimers (basal): heterodimers (∼55% of the heteromers)
